Consider two molecules from patent US7033593.

As a reminder, the Kd is the concentration at which binding is half-saturated. Read a high Kd as weaker binding. Broadly, the koff is a measure of how fast the partners let go of each other. Broadly, the kon is the rate constant with which the complex forms. Low readings indicate slower complex formation, high ones faster complex formation.

Assay [1] deals with soluble HIV 89.6 gp140 envelope protein (cleaved gp140 preparation) (HIV 89.6 (Clade B) primary isolate), Q73372. As to the kind of experiment: SPR, peptide over directly immobilised 89.6 gp140, no CD4.
The target in assay [2] is T1, CD4-gp140 complex (HIV 89.6 gp140 bound to sCD4) (HIV 89.6 (Clade B) primary isolate), Q73372. As to the kind of experiment: SPR, peptide over gp140 captured on immobilised CD4. In general terms: In SPR one partner is held on a chip, and binding of the other changes the refractive index at the surface.
Assay [3] addresses T1, CD4-gp140 complex (HIV 89.6 gp140 bound …). As to the kind of experiment: SPR (FIG. 10D); the legend of the same figure prints 280 nM.
Assay [4] has the same target. Briefly: SPR, RU bound at steady state, row CD4+gp140 (89.6 gp140).
Assay [5] deals with CD4-gp120 complex (HIV 89.6 gp120 bound to sCD4) (HIV 89.6 (Clade B) primary isolate), Q73372. Briefly: SPR, row CD4-gp120.
Assay [6] deals with T2, CD4-gp140-D1 complex (HIV 89.6 gp140 bound to sCD4 and the CCR5-D1 peptide) (HIV 89.6 (Clade B) primary isolate; human), Q73372. As to the kind of experiment: SPR, RU bound at steady state, row CD4+gp140+R5-D1 (89.6 gp140).
The target of assay [7] is T1, CD4-gp140 complex (HIV 89.6 gp140 bound …). As to the kind of experiment: SPR, row CD4+gp140 (89.6 gp140).
Assay [8] has the same target. Briefly: SPR, row CD4-gp140.
For assay [9], the target named is T2, CD4-gp140-D1 complex (HIV 89.6 gp140 …). As to the kind of experiment: SPR, row CD4+gp140+R5-D1 (89.6 gp140).
Assay [10] deals with T1, CD4-gp140 complex (HIV 89.6 gp140 bound …). As to the kind of experiment: SPR, row CD4+gp140 (89.6 gp140); column headed Kd s-1.
For assay [11] the target is unchanged. Briefly: SPR, row CD4+gp140 (89.6 gp140); column headed Ka.
The target in assay [12] is T2, CD4-gp140-D1 complex (HIV 89.6 gp140 …). Briefly: SPR, row CD4+gp140+R5-D1 (89.6 gp140); column headed Ka.
Assay [13] shares this target. As to the kind of experiment: SPR, row CD4+gp140+R5-D1 (89.6 gp140); column headed Kd s-1.

In [1], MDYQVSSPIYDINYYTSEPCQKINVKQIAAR (modifications not checked) [CCR5-D1 peptide] showed a Kd of 1 µM and a koff of 0.01 s⁻¹. Also, in [2], the Kd came to 0.28 µM, the koff came out at 0.00256 s⁻¹ and the kon is 9000 M⁻¹ s⁻¹. The same molecule had a Kd in [3] of 0.28 µM.

In the case of WMEWDREINNYTSLIHSLIEESQNQLEKNEQELLEL (modifications not checked) [HR-2 peptide T649Q26L], the Rm in assay [4] came to 53 RU; in assay [6] it was 64 RU. Besides, the dissociation constant (Kd) turned out to be 2.54 µM in assay [5], 2.4 µM in assay [7], 1.2 µM in assay [8] and 1 µM in assay [9]. Further, the off-rate (koff) in [5] stood at 0.0032 s⁻¹; in assay [8] it was 0.0011 s⁻¹; in assay [10] it was 0.0146 s⁻¹; in assay [13] it was 0.0053 s⁻¹. Besides, the kon in assay [5] is 1260 M⁻¹ s⁻¹; in assay [8] it was 880 M⁻¹ s⁻¹; in assay [11], 6200 M⁻¹ s⁻¹; in assay [12], 5100 M⁻¹ s⁻¹. In addition, the t1/2 in assay [5] is 3.62 min; in [7], 0.8 min; in assay [8], 10.5 min; in assay [9], 2.18 min.
